Experimental data from patent US20160311917A1 (Novartis, published 2016).
Substitutions are numbered along the chain they refer to.

T1: Glycosylation Deficient Mesothelin (296-588; N388Q, N496Q, N523Q) (human)
T1 construct: It already carries N388Q, N496Q and N523Q; also called hMSLN296-588; human mesothelin(296-588)
T1 chain: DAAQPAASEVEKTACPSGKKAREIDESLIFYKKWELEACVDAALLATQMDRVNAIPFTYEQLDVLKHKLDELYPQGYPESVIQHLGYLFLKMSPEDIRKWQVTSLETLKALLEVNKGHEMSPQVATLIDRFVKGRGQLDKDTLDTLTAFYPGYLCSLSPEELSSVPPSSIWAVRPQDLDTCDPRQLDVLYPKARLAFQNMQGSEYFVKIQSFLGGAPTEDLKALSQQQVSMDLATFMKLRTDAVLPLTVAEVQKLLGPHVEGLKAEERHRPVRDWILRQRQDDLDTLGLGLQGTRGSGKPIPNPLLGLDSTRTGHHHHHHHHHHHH

T2: recombinant human biotinylated mesothelin extracellular domain with C-terminal Avi-Tag (human, site selectively biotinylated in vitro with BirA enzyme at the C-terminal Avi-Tag)
T2 construct: Produced in HEK293F cells; as printed it includes a His tag and the Avi-Tag; Immobilised on a streptavidin sensor chip for SPR; also called human MSLN ECD; human mesothelin ECD
T2 chain: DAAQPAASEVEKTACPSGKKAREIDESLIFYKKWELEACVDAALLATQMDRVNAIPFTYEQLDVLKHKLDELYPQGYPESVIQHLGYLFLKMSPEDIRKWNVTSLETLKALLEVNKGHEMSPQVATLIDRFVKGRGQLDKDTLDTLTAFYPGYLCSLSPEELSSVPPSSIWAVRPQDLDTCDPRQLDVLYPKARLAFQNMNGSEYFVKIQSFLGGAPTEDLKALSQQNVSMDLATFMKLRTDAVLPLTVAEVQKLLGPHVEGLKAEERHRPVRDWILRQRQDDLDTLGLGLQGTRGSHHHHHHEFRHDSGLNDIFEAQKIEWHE

B1: M5 scFv (human anti-mesothelin scFv, soluble, His-tagged) (scFv)
scFv: QVQLVQSGAEVEKPGASVKVSCKASGYTFTDYYMHWVRQAPGQGLEWMGWINPNSGGTNYAQKFQGRVTMTRDTSISTAYMELSRLRSDDTAVYYCASGWDFDYWGQGTLVTVSSGGGGSGGGGSGGGGSGGGGSDIVMTQSPSSLSASVGDRVTITCRASQSIRYYLSWYQQKPGKAPKLLIYTASILQNGVPSRFSGSGSGTDFTLTISSLQPEDFATYYCLQTYTTPDFGPGTKVEIKGSHHHHHHHH
notes: also called scFv M5; XP31-20LC
B2: M21 scFv (human anti-mesothelin scFv, soluble, His-tagged) (scFv)
scFv: QVQLVQSWAEVKKPGASVKVSCKASGYTFTSYYMHWVRQAPGQGLEWMGIINPSGGSTSYAQKFQGRVTMTRDTSTSTVYMELSNLRSEDTAVYYCARSPRVTTGYFDYWGQGTLVTVSSGGGGSGGGGSGGGGSGGGGSDIQLTQSPSTLSASVGDRVTITCRASQSISSWLAWYQQKPGKAPKLLIYKASSLESGVPSRFSGSGSGTEFTLTISSLQPDDFATYYCQQYSSYPLTFGGGTRLEIKGSHHHHHHHH
notes: also called MM21; ZS95-03QD
B3: M12 scFv (human anti-mesothelin scFv, soluble, His-tagged) (scFv)
scFv: QVQLVQSGAEVKKPGASVKVSCKASGYTFTGYYMHWVRQAPGQGLEWMGRINPNSGGTNYAQKFQGRVTMTTDTSTSTAYMELRSLRSDDTAVYYCARTTTSYAFDIWGQGTMVTVSSGGGGSGGGGSGGGGSGGGGSDIQLTQSPSTLSASVGDRVTITCRASQSISTWLAWYQQKPGKAPNLLIYKASTLESGVPSRFSGSGSGTEFTLTISSLQPDDFATYYCQQYNTYSPYTFGQGTKLEIKGSHHHHHHHH
notes: also called DE12-14RD
B4: M11 scFv (human anti-mesothelin scFv, soluble, His-tagged) (scFv)
scFv: B1 scFv with V5Q, E12K, D31G, K63N, S84R, V138R
notes: also called NE10-19WD
B5: M23 scFv (human anti-mesothelin scFv, soluble, His-tagged) (scFv)
scFv: QVQLQQSGAEVKKPGASVKVSCKASGYTFTNYYMHWVRQAPGQGLEWMGIINPSGGYTTYAQKFQGRLTMTRDTSTSTVYMELSSLRSEDTAVYYCARIRSCGGDCYYFDNWGQGTLVTVSSGGGGSGGGGSGGGGSGGGGSDIQLTQSPSTLSASVGDRVTITCRASENVNIWLAWYQQKPGKAPKLLIYKSSSLASGVPSRFSGSGSGAEFTLTISSLQPDDFATYYCQQYQSYPLTFGGGTKVDIKGSHHHHHHHH
notes: also called XH66-84HE
B6: M16 scFv (human anti-mesothelin scFv, soluble, His-tagged) (scFv)
scFv: EVQLVESGGGLVQPGRSLRLSCAASGFTFDDYAMHWVRQAPGKGLEWVSGISWNSGSTGYADSVKGRFTISRDNAKNSLYLQMNSLRAEDTALYYCAKDSSSWYGGGSAFDIWGQGTMVTVSSGGGGSGGGGSGGGGSSSELTQEPAVSVALGQTVRITCQGDSLRSYYASWYQQKPGQAPVLVIFGRSRRPSGIPDRFSGSSSGNTASLIITGAQAEDEADYYCNSRDNTANHYVFGTGTKLTVLGSHHHHHHHH
notes: also called XS87-99RD
B7: M17 scFv (human anti-mesothelin scFv, soluble, His-tagged) (scFv)
scFv: EVQLVESGGGLVQPGRSLRLSCAASGFTFDDYAMHWVRQAPGKGLEWVSGISWNSGSTGYADSVKGRFTISRDNAKNSLYLQMNSLRAEDTALYYCAKDSSSWYGGGSAFDIWGQGTMVTVSSGGGGSGGGGSGGGGSSSELTQDPAVSVALGQTVRITCQGDSLRSYYASWYQQKPGQAPVLVIYGKNNRPSGIPDRFSGSSSGNTASLTITGAQAEDEADYYCNSRGSSGNHYVFGTGTKVTVLGSHHHHHHHH
notes: also called NS89-94MD
B8: M14 scFv (human anti-mesothelin scFv, soluble, His-tagged) (scFv)
scFv: QVQLVQSGAEVRAPGASVKISCKASGFTFRGYYIHWVRQAPGQGLEWMGIINPSGGSRAYAQKFQGRVTMTRDTSTSTVYMELSSLRSDDTAMYYCARTASCGGDCYYLDYWGQGTLVTVSSGGGGSGGGGSGGGGSGGGGSDIQMTQSPPTLSASVGDRVTITCRASENVNIWLAWYQQKPGKAPKLLIYKSSSLASGVPSRFSGSGSGAEFTLTISSLQPDDFATYYCQQYQSYPLTFGGGTKVDIKGSHHHHHHHH
notes: also called BS83-95ID

Target: T1, Glycosylation Deficient Mesothelin …
Experiment: Hydrogen-deuterium exchange mass spectrometry: difference in deuterium uptake of the co-expressed complex against unbound mesothelin, peptides 456-586
Experimental: For hMSLN₂₉₆₋₅₈₈ deuterium labeling experiments in the absence of antibody, 400 pmol of hMSLN₂₉₆₋₅₈₈, volume of 6.9 was diluted using 100 μl of the deuterium buffer for 15 minutes at 4° C. The labeling reaction was then quenched with 100 μl of chilled quench buffer at 2° C. for three minutes followed by injected onto the LC-MS system for automated pepsin digestion and peptide analysis.
The labeling reaction was then quenched with 100 μl of chilled quench buffer at 2° C. for three minutes followed by injected onto the LC-MS system for automated pepsin digestion and peptide analysis. […] The labeling reaction was then quenched with 100 μl of chilled quench buffer at 2° C. for three minutes, and then injected onto the LC-MS system for automated pepsin digestion and peptide analysis.
All deuterium exchange experiments were quenched using 0.5 M TCEP and 3 M urea (pH=2.6). After quenching, the exchanged antigen was subjected to on-line pepsin digestion using a Poroszyme Immobilized Pepsin column (2.1×30 mm) at 12° C. followed by trapping on a Waters Vanguard HSS T3 trapping column.

binding result | Binder
binds | B1

Target: T2, recombinant human biotinylated …
Experiment: SPR, Biacore T200; biotinylated mesothelin ECD on streptavidin chip, scFv injected; steady state affinity model
Experimental: (§1) Binding affinity of purified scFvs was measured on a Biacore T200 system. Briefly, recombinant human biotinylated mesothelin ECD was immobilized on a streptavidin (SA) sensor chip surface at a density of 150 RU. Purified scFv was injected over the chip under constant flow rate at three-fold serial dilutions. Association and dissociation rates of the protein complex were monitored for 270 seconds and 400 seconds, respectively. Double referencing was performed against a blank immobilized flow cell and a buffer blank. Affinity was determined with a Langmuir 1:1 binding model when possible, for those scFVs where accurate fitting was not possible due to fast on and off rates, the steady state model was used.

Kd | Binder
110 nM | B2
307 nM | B3
64.7 nM | B4
114 nM | B5

Target: T2, recombinant human biotinylated …
Experiment: SPR, Biacore T200; biotinylated mesothelin ECD on streptavidin chip, scFv injected; 1:1 binding model
Experimental: as §1

Kd | koff | kon | Binder
22.7 nM | 0.00395 s⁻¹ | 174000 M⁻¹ s⁻¹ | B6
27.8 nM | 0.0145 s⁻¹ | 522000 M⁻¹ s⁻¹ | B7
26.9 nM | 0.00113 s⁻¹ | 42000 M⁻¹ s⁻¹ | B1
0.9 nM | 0.00251 s⁻¹ | 2.75e+06 M⁻¹ s⁻¹ | B8
